The text below walks through data of doi:10.1101/2025.09.26.678488, “Dishevelled drives Wnt-stimulated disassembly of primary cilia through a unique PDZ-mediated binding mode with Daple and Girdin” (bioRxiv, 2025).

One assay addresses T1, Lip-PDZ_(DVL2) (human, UniProt O14641 265-361).
T1 construct: DVL2 (Dishevelled-2), human, PDZ domain, amino acids 265-361; also called His6x-Lip-PDZ; source: E. coli BL21-CodonPlus(DE3)-RIL, purified (Ni-NTA, SEC); not shown: Lipoyl (Lip), N-terminal, kept
T1 sequence (looked up): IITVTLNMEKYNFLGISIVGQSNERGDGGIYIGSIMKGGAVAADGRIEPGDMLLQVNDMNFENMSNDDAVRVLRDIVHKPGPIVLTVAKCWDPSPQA
In words: ITC; 40 μM Lip-PDZ_(DVL2) in the cell, 1.00 mM Lip-PBM_(Daple) or 1.33 mM Lip-PBM_(FZD4) in the syringe; 25°C; 25 mM sodium phosphate pH 6.7, 150 mM NaCl; one set of binding sites; apparent KD. The note with it: both partners purified.

The target of assay [1] is T2, PDZ_(DVL2) V334E cleft mutant (NMR sample) (human, UniProt O14641 265-361, V334E).
T2 construct: DVL2 (Dishevelled-2), human, PDZ domain, amino acids 265-361, V334E; source: E. coli BL21-CodonPlus(DE3)-RIL, purified (Ni-NTA, SEC)
T2 sequence (looked up): T1 sequence (looked up) with V70E
Description: NMR titration; 1H-15N fHSQC of 100 μM 15N-labelled PDZ_(DVL2) alone or with 150 μM (Daple, Girdin) or 300 μM (FZD4) Lip-tagged PBM peptide; 298 K; chemical shift perturbations and line broadening. The note with it: both partners purified.

Changes are numbered by the printed parent chain. No end group written: not given here. *: point of attachment. Lip = lipoyl, O=C(CCCC[C@@H]1CCSS1)*

B1: Lip-PBM_(Daple) (C-terminal eight residues of Daple tagged with Lipoyl) (peptide, UniProt Q9P219 2021-2028, looked up)
peptide: Lip-VWYEYGCV
notes: Daple, C-terminal eight residues; the last residue is printed as Val2028, so 2021 is worked out; printed residues: Trp2022, Glu2024, Tyr2025, Gly2026, Cys2027, Val2028; source: E. coli BL21-CodonPlus(DE3)-RIL, purified (Ni-NTA, SEC); not shown: Lipoyl (Lip), N-terminal, kept
As to B1, the Kd with Lip-PDZ_(DVL2) came to 9.1 µM. Besides, in assay [1], the binding result was “binds”.
